# In US12606635B2, “Glypican-2-binding moieties, chimeric antigen receptors and uses thereof” (Nanjing Legend Biotech Co., Ltd., priority 2020, dated 2026):
# B1: CAS72052VH5-BBz: humanized VHH anti-GPC2 CAR (4-1BB, CD3ζ), SEQ ID NO: 224; tested as CAR T cells (protein)
# chain: MALPVTALLLPLALLLHAARPQVQLVESGGGVVQPGGSLRLSCAVSGFRYASYCMGWFRQAPGKGLEGVAAIHSDGIIRYAESVKGRFTISKDNSKNTLYLQMNSLRAEDTAVYYCAAGAYCGADAILTLYDYAFWGQGTLVTVSSTTTPAPRPPTPAPTIASQPLSLRPEACRPAAGGAVHTRGLDFACDIYIWAPLAGTCGVLLLSLVITLYCKRGRKKLLYIFKQPFMRPVQTTQEEDGCSCRFPEEEEGGCELRVKFSRSADAPAYKQGQNQLYNELNLGRREEYDVLDKRRGRDPEMGGKPRRKNPQEGLYNELQKDKMAEAYSEIGMKGERRRGKGHDGLYQGLSTATKDTYDALHMQALPPR
# modifications: expressed in CAR T cells; CAS72052VH5-BBz
# B2: GPC2-CD27z: SEQ ID NO: 249, GPC2 CAR T comprised CD27 and CD3 ζ intracellular signaling domains (protein)
# chain: MALPVTALLLPLALLLHAARPEVQLVESGGGLVQPGGSLRLSCAISEFTYKNTCVGWFRQAPGKGREGVAAIDSDGNTNYVDSVKGRFTISQDNSKNTVYLQMNSLRAEDTAMYYCAAGAYCGRLLLWIGNYAYWGQGTLVTVSSTTTPAPRPPTPAPTIASQPLSLRPEACRPAAGGAVHTRGLDFACDILVIFSGMFLVFTLAGALFLHQRRKYRSNKGESPVEPAEPCHYSCPREEEGSTIPIQEDYRKPEPACSPRVKFSRSADAPAYKQGQNQLYNELNLGRREEYDVLDKRRGRDPEMGGKPRRKNPQEGLYNELQKDKMAEAYSEIGMKGERRRGKGHDGLYQGLSTATKDTYDALHMQALPPR
# modifications: expressed in CAR T cells; GPC2-CD27z
# B3: GPC2-CD28z: SEQ ID NO: 248, GPC2 CAR T comprised CD28 and CD3 ζ intracellular signaling domains (protein)
# chain: MALPVTALLLPLALLLHAARPEVQLVESGGGLVQPGGSLRLSCAISEFTYKNTCVGWFRQAPGKGREGVAAIDSDGNTNYVDSVKGRFTISQDNSKNTVYLQMNSLRAEDTAMYYCAAGAYCGRLLLWIGNYAYWGQGTLVTVSSIEVMYPPPYLDNEKSNGTIIHVKGKHLCPSPLFPGPSKPFWVLVVVGGVLACYSLLVTVAFIIFWVRSKRSRLLHSDYMNMTPRRPGPTRKHYQPYAPPRDFAAYRSRVKFSRSADAPAYKQGQNQLYNELNLGRREEYDVLDKRRGRDPEMGGKPRRKNPQEGLYNELQKDKMAEAYSEIGMKGERRRGKGHDGLYQGLSTATKDTYDALHMQALPPR
# modifications: expressed in CAR T cells; GPC2-CD28z
# B4: GPC2-ICOSz: SEQ ID NO:250, GPC2 CAR T comprised ICOS and CD3 ζ intracellular signaling domains (protein)
# chain: MALPVTALLLPLALLLHAARPEVQLVESGGGLVQPGGSLRLSCAISEFTYKNTCVGWFRQAPGKGREGVAAIDSDGNTNYVDSVKGRFTISQDNSKNTVYLQMNSLRAEDTAMYYCAAGAYCGRLLLWIGNYAYWGQGTLVTVSSTTTPAPRPPTPAPTIASQPLSLRPEACRPAAGGAVHTRGLDFACDFWLPIGCAAFVVVCILGCILICWLTKKKYSSSVHDPNGEYMFMRAVNTAKKSRLTDVTLRVKFSRSADAPAYKQGQNQLYNELNLGRREEYDVLDKRRGRDPEMGGKPRRKNPQEGLYNELQKDKMAEAYSEIGMKGERRRGKGHDGLYQGLSTATKDTYDALHMQALPPR
# modifications: expressed in CAR T cells; GPC2-ICOSz
# B5: GPC2-OX40z: SEQ ID NO:252, GPC2 CAR T comprised OX40 and CD3 ζ intracellular signaling domains (protein)
# chain: MALPVTALLLPLALLLHAARPEVQLVESGGGLVQPGGSLRLSCAISEFTYKNTCVGWFRQAPGKGREGVAAIDSDGNTNYVDSVKGRFTISQDNSKNTVYLQMNSLRAEDTAMYYCAAGAYCGRLLLWIGNYAYWGQGTLVTVSSTTTPAPRPPTPAPTIASQPLSLRPEACRPAAGGAVHTRGLDFACDVAAILGLGLVLGLLGPLAILLALYLLRRDQRLPPDAHKPPGGGSFRTPIQEEQADAHSTLAKIRVKFSRSADAPAYKQGQNQLYNELNLGRREEYDVLDKRRGRDPEMGGKPRRKNPQEGLYNELQKDKMAEAYSEIGMKGERRRGKGHDGLYQGLSTATKDTYDALHMQALPPR
# modifications: expressed in CAR T cells; GPC2-OX40z
# B6: CAS71529VH6-BBz: humanized VHH anti-GPC2 CAR (4-1BB, CD3ζ), SEQ ID NO: 223; tested as CAR T cells (protein)
# chain: MALPVTALLLPLALLLHAARPEVQLVESGGGLVQPGGSLRLSCAVSEYRYSSRYCMGWFRQAPGKGREGVAAIDSNGSADYVDSVKGRFTISKDNSKNTLYLQMNSLRAEDTAMYYCAADHLAYDCYSGATSVFRYWGQGTLVTVSSTTTPAPRPPTPAPTIASQPLSLRPEACRPAAGGAVHTRGLDFACDIYIWAPLAGTCGVLLLSLVITLYCKRGRKKLLYIFKQPFMRPVQTTQEEDGCSCRFPEEEEGGCELRVKFSRSADAPAYKQGQNQLYNELNLGRREEYDVLDKRRGRDPEMGGKPRRKNPQEGLYNELQKDKMAEAYSEIGMKGERRRGKGHDGLYQGLSTATKDTYDALHMQALPPR
# modifications: expressed in CAR T cells; CAS71529VH6-BBz
# B7: GPC2-CD2z: SEQ ID NO:251, GPC2 CAR T comprised CD2 and CD3 ζ intracellular signaling domains (protein)
# chain: MALPVTALLLPLALLLHAARPEVQLVESGGGLVQPGGSLRLSCAISEFTYKNTCVGWFRQAPGKGREGVAAIDSDGNTNYVDSVKGRFTISQDNSKNTVYLQMNSLRAEDTAMYYCAAGAYCGRLLLWIGNYAYWGQGTLVTVSSTTTPAPRPPTPAPTIASQPLSLRPEACRPAAGGAVHTRGLDFACDIYLIIGICGGGSLLMVFVALLVFYITKRKKQRSRRNDEELETRAHRVATEERGRKPHQIPASTPQNPATSQHPPPPPGHRSQAPSHRPPPPGHRVQHQPQKRPPAPSGTQVHQQKGPPLPRPRVQPKPPHGAAENSLSPSSNRVKFSRSADAPAYKQGQNQLYNELNLGRREEYDVLDKRRGRDPEMGGKPRRKNPQEGLYNELQKDKMAEAYSEIGMKGERRRGKGHDGLYQGLSTATKDTYDALHMQALPPR
# modifications: expressed in CAR T cells; GPC2-CD2z
# Columns and labels:
# SH-SY5Y [1] = assay: IFNγ release in co-culture with SH-SY5Y; type: cell-based, human; details: for IFNγ release: Example 7, co-culture with SH-SY5Y, FIG. 8D-8F
# From the text: (§1) In addition to the cytotoxicity data above, supernatants from the in vitro co-culture assays were also collected to assess CAR T cells-induced cytokine release, e.g., release of interferon gamma (i.e., IFNγ), as another indicator of cytotoxicity, was quantified using a HTRF human IFNγ AlphaLISA kit (Perkin Elmer, #62HIFNGPEH) per manufacturer's instruction. […] No significant cytokine release were detected against GPC2-negative cell line A-431.
# (§2) Supernatants from the in vitro co-culture assays were collected to assess CAR T cells-induced cytokine release, e.g., interferon gamma (i.e., IFNγ) release as described in Example 6. […] IFNγ was not induced in GPC2-negative A-431 cells. […] Cytokine release data was consistent with the in vitro cytotoxicity data.
# IMR-32 = assay: IFNγ release in co-culture with IMR-32; type: cell-based, human; details: Example 7, co-culture with IMR-32, FIG. 8D-8F
# From the text: as §1, §2
# SH-SY5Y [2] = assay: Serial challenge assay, CAR Ts with different co-stimulatory domains; type: cell-based, human; details: for CAR positive T cells percentage: serial SH-SY5Y challenge, FIG. 14B
# From the text: To evaluate the persistence of GPC2 CAR T cells, exemplary CAR T cells were selected and tested in the serial challenge assay. Briefly, 4×10^5 SH-SY5Y cells and 1.33×10^5 CART cells transduced with GPC2-BBz, GPC2-CD28z, GPC2-CD27z, GPC2-CD2z, GPC2-ICOSz or GPC2-OX40z lentiviral vectors were co-cultured in 12 well plates using fresh growth medium without IL-2 (E:T ratio=1:3). Cells were harvested after three days co-culture and samples were taken for cell counting using AOPI and T cell quantified by FACs. CAR T cells were replated with fresh SH-SY5Y cells at a 1:2 E:T ratio in growth medium without IL-2 to start the next round of tumor co-culture. Samples were taken for cell counting and T cell quantification at the end of each challenge every three days. GPC2-BBz served as a positive control while the untransduced T cell (UnT) was used as a negative control.
# [3] = tested on: neuroblastoma SH-SY5Y xenograft; type: in vivo, NCG mice; details: mouse, in vivo
# Description: A single dose of untransduced T cells (10×10^6) or CAR T cells (5×10^6) was administered intravenously to tumor engrafted mice 9 days after tumor inoculation (FIG. 9A). […] At the end of obversion, 100% of monovalent CAR T cells (CAS70950VH6-BBz, CAS72669VH6-BBz) and 80% of multi-valent CAR T cells (CAS70950VH6-AS71529VH6-BBz) treated mice were alive (FIG. 9A). At day 42 post treatment, 2/5 mice (40%) treated with CAS72669VH6-BBz expressing CAR T cells were tumor-free and 3/5 mice (60%) treated with CAS70950VH6-AS71529VH6-BBz expressing CAR T cells were tumor-free without recurrence. […] The data highlighted the superiority of VHH-based CAR T cells in tumor regression and protection of mice from disease progression.
# Moreover, the expansion and persistence of CAR T cells in vivo are also considered as critical predictors of durable clinical tumor regression in patients with cancer. […] Average 5.00±6.42% of CAR T cells were found in the peripheral blood of NCG mice treated with 5×10^6 CAS70950VH6-AS71529VH6-BBz CAR T cells, whereas less than 1% CAR T cells were detected in CAS70950VH6-BBz, CAS72669VH6-BBz and CAS71529VH6-BBz expressing CAR T groups. Expansion of CAR T cells in the CAS70950VH6-AS71529VH6-BBz group was inversely correlated with tumor size over time.
molecule,measurement,setting,value
B1,IFNγ release,SH-SY5Y [1],high levels of IFNγ
same,IFNγ release,IMR-32,high levels of IFNγ
B2,CAR positive T cells percentage,SH-SY5Y [2],gradual decline
B3,IFNγ production against SH-SY5Y,"SH-SY5Y [1]; GPC2 CAR Ts with different co-stimulatory domains, FIG. 13B",higher level of IFNγ production
same,long term persistence and CAR T cells expansion,"SH-SY5Y [2]; serial SH-SY5Y challenge without IL-2, FIG. 14A and 14C",comparable level of long term persistence and CAR T cells expansion
same,CAR positive T cells percentage,SH-SY5Y [2],expanded and reaching a peak level
B4,CAR positive T cells percentage,SH-SY5Y [2],gradual decline
B5,CAR positive T cells percentage,SH-SY5Y [2],gradual decline
B6,IFNγ release,SH-SY5Y [1],high levels of IFNγ
same,IFNγ release,IMR-32,high levels of IFNγ
same,percentage of CAR T cells in peripheral blood,[3],less than 1%
B7,CAR positive T cells percentage,SH-SY5Y [2],gradual decline
